In the supplement of paper PMC10567573:
± gives the standard deviation.

Test: protein stability index of a GFP-peptide fusion (GPS, HEK-293T) (PSI 1-6); higher = more stable
[1] = treatment: DMSO, c terminus: a fixed tail appended
[2] = treatment: MLN4924 1 uM, 8 h, c terminus: a fixed tail appended
[3] = treatment: DMSO, c terminus: native
[4] = treatment: MLN4924 1 uM, 8 h, c terminus: native
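Also: 24-mer peptide tiles fused after GFP, lentivirally expressed, FACS-sorted into six equal bins by GFP/DsRed ratio, decoded by Illumina sequencing, PSI is the read-weighted mean bin number.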

Sequence | protein stability index [1] | protein stability index [2] | protein stability index [3] | protein stability index [4]
KEDKIMLDDRKNEEDGGADEHEHP [MIA2] | 5.52 ± 0.063 | 5.55 ± 0.19 |  | 
TWDGRPLTMAATFDDCLYALCVVD [GFOD1] | 2.38 ± 0.46 | 2.35 ± 0.61 |  | 
KPTRRDASPESPSKKGPIPIRRH [GNAS] |  |  | 4.71 ± 0.19 | 5.21 ± 0.49
GPASRMDPESERALQAPHSPSKTD [PBXIP1] | 5.46 ± 0.24 | 5.34 ± 0.23 |  | 
RPMHHEDFKEDLKKFRTKSRTWAG [CDC25A] | 3.31 ± 0.22 | 3.61 ± 0.36 |  | 
EDESQSEEENDYRNLDASPTYKGL [CEP70] | 5.27 ± 0.23 | 5.41 ± 0.15 |  | 
LRADQEKERKKREERERKRRKEEE [FAF2] | 5.435 ± 0.02 | 5.35 ± 0.31 |  | 
KLHDFFSYLMDHFIPSSHNDRDFL [PPEF2] | 2.46 ± 0.51 | 2.53 ± 0.64 |  | 
TTSDIPHMLNQVESKVKDILSKVQ [FAM98B] | 2.48 ± 0.38 | 2.32 ± 0.32 |  | 
ISCPTCRRETVLFTDYGLAALAVN [RNF208] | 2.15 ± 0.13 | 2.22 ± 0.28 |  | 
MKKIKKLENDTISKQLTLEQLRRE [CCDC6] | 3.71 ± 1.1 | 3.84 ± 0.67 |  | 
PSDPLVSIGALISKAHLEKVRSYV [ALDH8A1] | 2.05 ± 0.079 | 2.12 ± 0.13 |  | 
QPPAITQVHRQGERRRELVRSQTL [SMTNL2] | 4.19 ± 0.39 | 4.57 ± 0.33 |  | 
LKLANHQRPVSRQVTCLRTQVLED [TRAF3IP2] | 3.49 ± 0.35 | 3.58 ± 0.27 |  | 
SLLDVQRVPSFESFEDDCSQSLCL [ETS2] | 3.9 ± 0.53 | 3.67 ± 0.54 |  | 
LDNTKFRSHEGETAYIRVKVDGPR [SRSF1] | 3.73 ± 0.34 | 3.49 ± 0.32 |  | 
LAPGPAPTRCLPGHKEEEDGEGAG [ESRRA] | 5.45 ± 0.16 | 5.48 ± 0.081 |  | 
DELAHRCSSFMAPPVTDLGELRRR [CPOX] | 3.92 ± 0.11 | 4.04 ± 0.3 |  | 
ALILHQRIHSGKKPYACDECAKAF [ZNF396] | 2.11 ± 0.26 | 2.84 ± 0.45 |  | 
KKHNVTAVVRLNKKIYEAKRFTDA [CDC14A] | 2.73 ± 0.2 | 2.49 ± 0.24 |  | 
DDALEDFKKVLDLNPGFQDATLSL [TTC32] | 3.73 ± 0.32 | 3.85 ± 0.32 |  | 
PLEGSAKGKVQAELSQPLTAGGAI [RBBP5] | 4.88 ± 0.19 | 4.72 ± 0.35 |  | 
RLAQPSSPEVLTPQLSPGSGTPQA [RTN2] | 5.12 ± 0.12 | 4.96 ± 0.2 |  | 

Sequence | protein stability index [1] | protein stability index [2] | protein stability index [3] | protein stability index [4]
SDRRKEKDPKAGDSKSGGSGSESD [DVL3] | 5.69 ± 0.32 | 5.55 ± 0.15 |  | 
YSAYIRRCACAASSDESPGSKCSP [TTC32] | 2.25 ± 0.23 | 2.85 ± 0.16 |  | 
YDIAKHLTYENVERWLKELRDHAD [RAB11A] | 2.66 ± 0.36 | 2.77 ± 0.23 |  | 
SSAGSAEQTAPGDSTGYMEVSLDS [EHMT1] | 5.29 ± 0.35 | 5.33 ± 0.12 |  | 
LFSSHPPLGGGVGGQDGLGAPKDQ [KLHL14] | 4.89 ± 0.55 | 4.81 ± 0.049 |  | 
RLAADDFRTKFETEQALRLSVEAD [KRT17] | 4.8 ± 0.3 | 4.66 ± 0.15 |  | 
LTENTAENRELYIKTTLRELLVYI [PKD2L1] | 2.31 ± 0.36 | 2.45 ± 0.33 |  | 
DSCCPAGIFQAMCLLICAEMYQVS [RHOBTB3] | 3.07 ± 0.12 | 3.02 ± 0.31 |  | 
HCGELKRRLGLSTLGELKQNLSRS [TPD52L2] | 3.04 ± 0.22 | 3.22 ± 0.44 |  | 
SASECMQDFNTMFTNCYIYNKPTD [BRD3] | 3.1 ± 0.23 | 3.08 ± 0.45 |  | 
LRAGSSEFDSEHNLTSNEGHSLKN [RASAL3] | 4.67 ± 0.42 | 4.87 ± 0.64 |  | 
TFAGDTCQVALNFANEEEAKKFRK [WASL] | 4.75 ± 0.12 | 4.73 ± 0.32 |  | 
LETSGNPNGRYGSGYLLASTPESE [SLC6A17] | 4.93 ± 0.14 | 4.91 ± 0.26 |  | 
LKIPQVRGMDLSWESRTGDQYSYS [LCOR] | 2.87 ± 0.25 | 2.86 ± 0.31 |  | 
LPVASSSTLLPLAPSNSTSLNSTF [NFE2L1] | 3.89 ± 0.11 | 3.65 ± 0.24 |  | 
AVEGAARTTPSRREITGVQAQPGE [PALM] | 5.22 ± 0.36 | 5.31 ± 0.28 |  | 
YLNEYEAEKIEYNESMKAYHNSPA [SMARCE1] | 3.95 ± 0.4 | 3.98 ± 0.31 |  | 
MLREPAEPVAAEPKQSGSFRYLQG [PDLIM4] | 4.18 ± 0.12 | 4.25 ± 0.17 |  | 
KNLFGPPLESAFDHEDFTGSSSLG [FCHO1] | 4.22 ± 0.13 | 4.37 ± 0.7 |  | 
KKCCIPETRRRMEMAFNTRCKEEN [NLN] | 3.57 ± 0.25 | 3.75 ± 0.22 |  | 
IVADILLYVVIPTRRSTAEAFQIV [SPNS1] | 2.97 ± 0.34 | 3.1 ± 0.18 |  | 
NSTLDPHGHLILHSMHKYQPRIHL [TBX6] | 2.19 ± 0.17 | 2.34 ± 0.26 |  | 
VVTLWYRAPEVLLQSTYATPVDMW [CDK4] | 3.15 ± 0.61 | 3.07 ± 0.68 |  | 

Sequence | protein stability index [1] | protein stability index [2] | protein stability index [3] | protein stability index [4]
ARRRKKILFYCHFPDLLLTKRDSF [ALG2] | 2.4 ± 0.56 | 2.04 ± 0.55 |  | 
DNLRKVVPCYSKTQKLSKIETLRL [NEUROD6] | 2.81 ± 0.17 | 2.8 ± 0.32 |  | 
LTCSLSFLLCARSLLRGFLLQNEF [MCOLN1] | 3.34 ± 0.44 | 2.93 ± 0.46 |  | 
LHSACGLSKDHQEVETEGPESADT [TOR1AIP2] | 5.36 ± 0.26 | 5.53 ± 0.16 |  | 
KVPNHYIAIPEWFLSENATVAAET [CPXM2] | 3.22 ± 0.43 | 3.32 ± 0.47 |  | 
LKKAKVQVERMREVNSRCYQPEPF [FBXO34] | 2.79 ± 0.61 | 2.84 ± 0.16 |  | 
RGIAIVSVLVILISIVIFCLETLP [KCNA4] | 2.29 ± 0.17 | 2.26 ± 0.33 |  | 
TGSTYNLSSGMAVAGMPTAYDLSS [CARM1] | 3.27 ± 0.21 | 3.42 ± 0.44 |  | 
DVKCYQGTDIVRGCDPLVKPVGRQ [ADAMTSL2] | 3.68 ± 0.3 | 3.88 ± 0.27 |  | 
PPSVLISKNEVGIFTTPNFDETSS [KMT2E] | 4.09 ± 0.12 | 4.33 ± 0.069 |  | 
CKNGETLLGAVNFFVSSINTLVTK [ARFIP2] | 2.72 ± 0.75 | 2.64 ± 0.88 |  | 
IFRCFCPVFLHSQMLWELVLLGEP [DENND6A] | 3.17 ± 0.39 | 2.87 ± 0.33 |  | 
FYRYKMPRLIAKVEGKGNGIKTVI [EIF5] | 2.28 ± 0.45 | 2.26 ± 0.23 |  | 
RNGLHLPEQVQNEIKSMKKRMSEL [NLN] | 4.11 ± 0.33 | 4.4 ± 0.31 |  | 
ERICSEEERAKAKHLARQLEEKDR [CHCHD3] | 5.4 ± 0.13 | 5.17 ± 0.35 |  | 
VDQYLALPDVSLGRYAYVRGGGDP [MCOLN1] | 3.19 ± 0.26 | 3.03 ± 0.4 |  | 
DGAGRTWQDSDTVKLLVDLELSYG [TOR1AIP2] | 2.37 ± 0.48 | 2.79 ± 0.43 |  | 
SVSCCHGNTLLAVRSVTDEPVPP [NEK8] |  |  | 3.38 ± 0.17 | 3.48 ± 0.077
RSLILDDRGLRGFPKNRVLEGVID [TRIM9] | 3.16 ± 0.2 | 3.47 ± 0.41 |  | 
LGRSIVSSPQGKSGPEAARAGGWV [PKD2L1] | 3.45 ± 0.2 | 3.83 ± 0.36 |  | 
SLLRGFLLQNEFVGFMWRQRGRVI [MCOLN1] | 2.29 ± 0.2 | 2.13 ± 0.2 |  | 
ESGEHFRSLLGYDPQILQMLKEEH [RAD54B] | 3.77 ± 0.35 | 3.56 ± 0.55 |  | 
HFCVDDTKLLSGSYDCTVKLWDPV [WDR88] | 2.65 ± 0.24 | 2.58 ± 0.23 |  | 

Sequence | protein stability index [1] | protein stability index [2] | protein stability index [3] | protein stability index [4]
LKSSILIAMAVYTYLRLIVDHHGT [INTS3] | 3.51 ± 0.21 | 3.11 ± 0.27 |  | 
ADLELSLPECLEYEEEFDYETESE [GNAS] | 5.41 ± 0.24 | 5.47 ± 0.16 |  | 
VENELMISYLMFLQILVYFSFMSW [FAM98B] | 2.94 ± 0.45 | 3.14 ± 0.05 |  | 
GYPAAPPAVPFAPHFLQGGPFPLP [TBX6] | 2.52 ± 0.58 | 2.7 ± 0.35 |  | 
PPPLGPVVPVLVFPPDLVFRADQR [MOSPD3] | 3.25 ± 0.13 | 3.22 ± 0.32 |  | 
QGQPVVNRPLSLKDQQTFARSVGL [TRADD] | 3.67 ± 0.35 | 3.9 ± 0.12 |  | 
GTRGRLESAQATFQAHRDKYEKLR [ARFIP2] | 4.27 ± 0.31 | 4.44 ± 0.28 |  | 
DKLYHPECFMCSDCGLNLKQRGYF [PDLIM4] | 2.22 ± 0.18 | 2.23 ± 0.33 |  | 
ILNLERDVEDLQRDKARLLREKVE [NFE2L1] | 3.96 ± 0.51 | 3.93 ± 0.41 |  | 
LVYHPVQLSTPHAVGVLLLGLVGY [DHCR7] | 3.5 ± 0.77 | 3.08 ± 0.23 |  | 
PFVSAMPTPMPHNKGTRFSEAWEY [ZBED2] | 2.88 ± 0.23 | 2.94 ± 0.11 |  | 
ADVLLQAGADLEHESEGGRTPLMK [ANKRD17] | 5.17 ± 0.34 | 5.29 ± 0.15 |  | 
IGTMAGITTPIIDTFKVPKEMFTV [SLC6A17] | 2.45 ± 0.3 | 2.71 ± 0.24 |  | 
TSCSLELIGDLIGHSSSVEMFLYF [WDR41] | 3.13 ± 0.88 | 2.4 ± 0.74 |  | 
FKPLNSTPATTTEPPKPTFPAYTQ [ZNF207] | 3.84 ± 0.26 | 3.9 ± 0.14 |  | 
SEDQKRLKQAKELDRERAAANEQL [CHCHD3] | 5.48 ± 0.17 | 5.57 ± 0.21 |  | 
LGEVAYHDYHGILVDEEEKVLIQK [ADD1] | 4.9 ± 0.15 | 4.74 ± 0.61 |  | 
YNHQHKYFFLIGPPALLPLYFQWY [FADS1] | 3.18 ± 0.66 | 2.38 ± 0.32 |  | 
RYDAEVVAIAQKFAALRASLVAPL [MYORG] | 2.55 ± 0.17 | 2.01 ± 0.17 |  | 
GGSSGKGTTLRGRSDADLVVFLSP [OAS1] | 2.73 ± 0.17 | 3.07 ± 0.35 |  | 
